Results from US20220119531A1.

Target: human PD-L1 expressed on mammalian cells (human) (UniProt Q9NZQ7)
Experiment: FACS on PDL1-Raji cells by the text; sheet title 'Cell-Based Binding Raji-PDL1 cells', y axis labelled IL2 (ng/ml); EC50 table under the plot, unit taken from the axis Concentration (nM)

Sequence of human PD-L1 expressed on mammalian cells (human) (Q9NZQ7 19-290): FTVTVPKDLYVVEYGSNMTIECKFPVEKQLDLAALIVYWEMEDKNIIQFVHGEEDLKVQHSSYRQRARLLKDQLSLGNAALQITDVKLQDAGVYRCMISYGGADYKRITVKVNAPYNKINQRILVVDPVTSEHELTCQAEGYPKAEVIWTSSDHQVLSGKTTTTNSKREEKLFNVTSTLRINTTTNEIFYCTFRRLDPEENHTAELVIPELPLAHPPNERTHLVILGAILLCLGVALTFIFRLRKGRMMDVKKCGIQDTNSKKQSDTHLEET

An EC50 of 0.89 nM was found for Tecentriq (atezolizumab) (antibody) in this work.
